Laboratory results published in article PMC4624963, “Enzymatic Characterization of Recombinant Food Vacuole Plasmepsin 4 from the Rodent Malaria Parasite Plasmodium berghei” (PLoS ONE, 2015).
Each block holds one binder with its values, some of them ahead of it. Where no end group is shown, it is not given here.

How the values were obtained:
[1] = biological target: mature plasmepsin 4 of Plasmodium berghei (PbPM4), auto-matured from semi-proPbPM4 (Plasmodium berghei ANKA); assay: enzyme inhibition kinetics (Ki of competitive inhibition); initial cleavage velocities of a chromogenic peptide substrate at varied inhibitor concentration, spectrophotometric; proPbPM4 pre-incubated in 100 mM sodium citrate pH 5.0, 37°C, 5 min; tight-binding or non-tight-binding competitive fit
[2] = biological target: plasmepsin 4 from Plasmodium malariae (Plasmodium malariae); assay: enzyme inhibition kinetics (Ki of competitive inhibition); initial cleavage velocities of a chromogenic peptide substrate at varied inhibitor concentration; plasmepsins pre-incubated in 100 mM sodium formate pH 4.5, 37°C, 5 min to convert zymogen to mature enzyme
[3] = biological target: plasmepsin 4 from Plasmodium vivax (Plasmodium vivax); assay: as above
[4] = biological target: plasmepsin 4 from Plasmodium ovalae (P. ovalae); assay: as above
[5] = biological target: human cathepsin D (human) (UniProt P07339); assay: enzyme inhibition kinetics (Ki of competitive inhibition); initial cleavage velocities of a chromogenic peptide substrate at varied inhibitor concentration; hcatD pre-incubated in 200 mM sodium formate pH 3.7, 37°C, 5 min

B2: compound 2 (KPFSLΨLQF), peptidomimetic inhibitor designed for PfPM1 (peptide)
peptide: KPFSLLQF
modifications: not fully specified (residue 5); printed as KPFSLΨLQF; also: Ψ pseudopeptide bond between L5 and L6
- Ki [1]: 379 nM

B3: compound 7 (KPFELΨAWT), peptidomimetic inhibitor designed for PmPM4 (peptide)
peptide: KPFELAWT
modifications: not fully specified (residue 5); printed as KPFELΨAWT; also: Ψ pseudopeptide bond between L5 and A6
- Ki [1]: 8100 nM

B5: compound 1 (KPYEFΨRQF), peptidomimetic inhibitor designed for PbPM4 (peptide)
peptide: KPYEFRQF
modifications: not fully specified (residue 5); printed as KPYEFΨRQF; also: Ψ pseudo-peptide bond between F5 and R6
- Ki [2]: 445 nM
- Ki [3]: 426 nM
- Ki [4]: 1900 nM
- Ki [5]: 41000 nM
- Ki [1]: 3900 nM

B6: compound 4 (KPVEFΨRQT), peptidomimetic inhibitor designed for PfPM4 (peptide)
peptide: KPVEFRQT
modifications: not fully specified (residue 5); printed as KPVEFΨRQT; also: Ψ pseudopeptide bond between F5 and R6
- Ki [1]: 502 nM

Now those with a lower Ki [1], led by results:

- Ki [1]: 1.4 nM
B1: compound 5 (KPLEFΨFRV), peptidomimetic inhibitor designed for PvPM4 (peptide)
peptide: KPLEFFRV
modifications: not fully specified (residue 5); printed as KPLEFΨFRV; also: Ψ pseudopeptide bond between F5 and F6

- Ki [1]: 0.12 nM
B4: compound 6 (KPLEFΨYRV), peptidomimetic inhibitor designed for PoPM4 (peptide)
peptide: KPLEFYRV
modifications: not fully specified (residue 5); printed as KPLEFΨYRV; also: Ψ pseudopeptide bond between F5 and Y6
